Consider 37 sequences from the supplement of paper PMC7877785.

This series can be described thus: self-splicing fitness, log relative to wild type (ln ratio); higher = more splicing; Tetrahymena group I intron in knt gene, E. coli kanamycin selection, DiMSum; sequences stand for … in CUCUCU…GGAGGGAAAAGUUAUCAGGCAUGCACCUGGUAGCUAGUCUUUAAACCAAUAGAUUGCAUCGGUUUAAAAGGCAAGACCGUCAAAUUGCGGGAAAGGGGUCAACAGCCGUUCAGUACCAAGUCUCAGGGGAAACUUUGAGAUGGCCUUGCAAAGGGUAUGGUAAUAAGCUGACGGACAUGGUCCUAACCACGCAGCCAAGUCCUAAGUCAACAGAUCUUCUGUUGAUAUGGAUGCAGUUCACAGACUAAAUGUCGGUCGGGGAAGAUGUAUUCUUCUCAUAAGAUAUAGUCGGACCUCUCCUUAAUGGGAGCUAGCGGAUGAAGUGAUGCAACACUGGAGCCGCUGGGAACUAAUUUGUAUGCGAAAGUAUAUUGAUUAGUUUUGGAGUACUCGUGGUCG
The method, boiled down: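 DiMSum derived fitness as the error-weighted combination of fold changes across replicates, kanamycin versus no kanamycin, normalised to wild type. E. coli BL21(DE3) held the library, which randomised all eight P1ex-region intron nucleotides within the knt kanamycin-resistance gene on pET-22b(+). Six replicate transformations grew overnight at 37°C or 30°C on LB agar with or without 25 μg/mL kanamycin, also containing 100 μg/mL carbenicillin, 50 μM IPTG and 0.2% rhamnose, and pooled colonies were amplicon-sequenced on an Illumina HiSeq 2500.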

± gives the uncertainty stated by the source.

Consider AAGCAGCAAUAUUACGGUAU, for which the “self-splicing fitness (ln)” value is, setting by setting: (30 °C) -1.55 ± 0.055; (37 °C) -1.13 ± 0.078.

With UGUGAGCAAUAUUACGCCCG, the “self-splicing fitness (ln)” value (30 °C) was -0.83 ± 0.47 and the “self-splicing fitness (ln)” value (37 °C) is -1.17 ± 0.42.

Turning to GGGCAGCAAUAUUACGCUUG, the “self-splicing fitness (ln)” value was -0.914 ± 0.088 (30 °C) and 0.22 ± 0.13 (37 °C).

As to GUGUAGCAAUAUUACGUGAC, the “self-splicing fitness (ln)” value (30 °C) was -1.35 ± 0.11 and the “self-splicing fitness (ln)” value (37 °C) is -1.29 ± 0.19.

GCCUAGCAAUAUUACGGAGA: the “self-splicing fitness (ln)” value reads like this: (30 °C) -1.16 ± 0.11; (37 °C) -1.06 ± 0.11.

As to ACAGAGCAAUAUUACGACCU, the “self-splicing fitness (ln)” value is -2.8 ± 0.19 (30 °C) and -0.728 ± 0.16 (37 °C).

Take CGUUAGCAAUAUUACGGGUG: the “self-splicing fitness (ln)” value (30 °C) was -0.565 ± 0.057 and the “self-splicing fitness (ln)” value (37 °C) came to 0.0881 ± 0.071.

Take CAGAAGCAAUAUUACGGCGU: the “self-splicing fitness (ln)” value runs as follows: (30 °C) -2.01 ± 0.18; (37 °C) -1.18 ± 0.18.

UCAAAGCAAUAUUACGAACC: the “self-splicing fitness (ln)” value (30 °C) was -2.8 ± 0.27 and the “self-splicing fitness (ln)” value (37 °C) was -0.879 ± 0.28.

GGGCAGCAAUAUUACGACAA: the “self-splicing fitness (ln)” value (30 °C) is -1.53 ± 0.22 and the “self-splicing fitness (ln)” value (37 °C) was -0.573 ± 0.18.

For the sequence AAGGAGCAAUAUUACGUUGU, the “self-splicing fitness (ln)” value is, setting by setting: (30 °C) -2.61 ± 0.15; (37 °C) -2.53 ± 0.21.

In the case of CUUGAGCAAUAUUACGUGUG, the “self-splicing fitness (ln)” value runs as follows: (30 °C) -2.12 ± 0.07; (37 °C) -0.901 ± 0.073.

Consider UUAGAGCAAUAUUACGCCCG, for which the “self-splicing fitness (ln)” value was -1.21 ± 0.11 (30 °C) and -0.643 ± 0.19 (37 °C).

For the sequence UGCUAGCAAUAUUACGACGA, the “self-splicing fitness (ln)” value was -0.229 ± 0.13 (30 °C) and 0.191 ± 0.12 (37 °C).

Turning to ACAGAGCAAUAUUACGUCGG, the “self-splicing fitness (ln)” value (30 °C) is -3.64 ± 0.16 and the “self-splicing fitness (ln)” value (37 °C) was -3.58 ± 0.23.

As for CACAAGCAAUAUUACGAGUG, the “self-splicing fitness (ln)” value was -4.41 ± 0.15 (30 °C) and -2.02 ± 0.12 (37 °C).

In the case of AGUUAGCAAUAUUACGGUGU, the “self-splicing fitness (ln)” value was -3.11 ± 0.21 (30 °C) and -1.73 ± 0.21 (37 °C).

As for CCACAGCAAUAUUACGCAGU, the “self-splicing fitness (ln)” value runs as follows: (30 °C) -3.58 ± 0.15; (37 °C) -2.92 ± 0.19.

Regarding GAUUAGCAAUAUUACGGCUU, the “self-splicing fitness (ln)” value runs as follows: (30 °C) -0.0112 ± 0.094; (37 °C) -0.0247 ± 0.11.

Regarding AAAGAGCAAUAUUACGGUAG, the “self-splicing fitness (ln)” value is -3.9 ± 0.27 (30 °C) and -2.11 ± 0.18 (37 °C).

Regarding GCCCAGCAAUAUUACGGAUU, the “self-splicing fitness (ln)” value was 0.0408 ± 0.057 (30 °C) and -0.0391 ± 0.08 (37 °C).

As for CAGAAGCAAUAUUACGAUCU, the “self-splicing fitness (ln)” value by setting is: (30 °C) -1.88 ± 0.12; (37 °C) -0.995 ± 0.1.

Regarding AAUAAGCAAUAUUACGCUUG, the “self-splicing fitness (ln)” value reads like this: (30 °C) -1.39 ± 0.13; (37 °C) -0.982 ± 0.15.

In the case of AUCCAGCAAUAUUACGUCGG, the “self-splicing fitness (ln)” value reads like this: (30 °C) -2.71 ± 0.089; (37 °C) -2.43 ± 0.13.

As to ACGCAGCAAUAUUACGUCUU, the “self-splicing fitness (ln)” value was -1.36 ± 0.065 (30 °C) and -1.27 ± 0.083 (37 °C).

In the case of GACCAGCAAUAUUACGGGGU, the “self-splicing fitness (ln)” value was -3.79 ± 0.19 (30 °C) and -1.82 ± 0.14 (37 °C).

GUUUAGCAAUAUUACGAUAU: the “self-splicing fitness (ln)” value is, setting by setting: (30 °C) -1.18 ± 0.14; (37 °C) -0.528 ± 0.16.

Take UUCAAGCAAUAUUACGUUUG: the “self-splicing fitness (ln)” value (30 °C) was -3.95 ± 0.34 and the “self-splicing fitness (ln)” value (37 °C) was -2.31 ± 0.28.

With AAUGAGCAAUAUUACGGAAU, the “self-splicing fitness (ln)” value reads like this: (30 °C) -4.25 ± 0.37; (37 °C) -2.34 ± 0.32.

On to AGCCAGCAAUAUUACGUCAA, for which the “self-splicing fitness (ln)” value (30 °C) was -3.18 ± 0.22 and the “self-splicing fitness (ln)” value (37 °C) is -2.53 ± 0.21.

Consider CCCUAGCAAUAUUACGGCAU, for which the “self-splicing fitness (ln)” value (30 °C) is -3.41 ± 0.24 and the “self-splicing fitness (ln)” value (37 °C) was -1.94 ± 0.17.

Regarding UCAUAGCAAUAUUACGCAGU, the “self-splicing fitness (ln)” value is -4.03 ± 0.36 (30 °C) and -3.4 ± 0.31 (37 °C).

UAGUAGCAAUAUUACGGGCA: the “self-splicing fitness (ln)” value reads like this: (30 °C) -1.17 ± 0.16; (37 °C) -0.536 ± 0.15.

With AGCCAGCAAUAUUACGCCAG, the “self-splicing fitness (ln)” value by setting is: (30 °C) -3.96 ± 0.27; (37 °C) -2.23 ± 0.16.

As for AUUUAGCAAUAUUACGAAUA, the “self-splicing fitness (ln)” value by setting is: (30 °C) -2.16 ± 0.33; (37 °C) -0.575 ± 0.27.

Take UCAGAGCAAUAUUACGAUAG: the “self-splicing fitness (ln)” value was -4.05 ± 0.39 (30 °C) and -2.38 ± 0.39 (37 °C).

As for CUCUAGCAAUAUUACGGGGA, the “self-splicing fitness (ln)” value is, setting by setting: (30 °C) -1.69 ± 0.17; (37 °C) -1.62 ± 0.14.
